From US20180011114A1 (PUBLIC UNIVERSITY CORPORATION NARA MEDICAL UNIVERSITY, published 2018)

B1: AQ8 (antibody, V domains shown)
VH: EVNLVESGGGLVQPGGSMSLSCAASGFTFTDYYMSWVRQPPGKALEWLALIRNKANGYTTEYSASVKGRFTISRDNSQSILYLQMNALRAEDSATYYCARDSYYSYDGYAMDYWGQGTSVTVSS
VL: DIQMTQSPASLAASVGETITITCQASENIYFSLAWYQQKQGKSPQLLIYNTDSLKDGVPSRFSGSGSGTQYSMKINSMQPEDTATYFCRQSYDFPWTFGGGTKLEIK
notes: Mouse antibody from a hybridoma (culture supernatant in the ELISA); also called AQ8 antibody
B2: AJ540 (antibody, V domains shown)
VH: QIQLVQSGPELKKPGESVKISCKASGYTFTDYAMHWVKQVPGKGLKWMGWINTYTGKPTYADDFKGRFVFSLEASASTANLQISNLKNEDTANVFCAREGGGYYWYFDFWGPGTMVTVSS
VL: DIVMTQSPTSMSISVGDRVTMNCKANQNVDFNVDWYQQKTGQSPKLLIYKASNRYTGVPDRFTGSGSGTDFTFTISNMQAEDLAVYYCMQSNSFPLTFGSGTNLEIK
notes: Rat antibody from a hybridoma (culture supernatant in the ELISA); also called AJ540 antibody

What was measured:
[1] = biological target: T1, anti-FX-arm of ACE910; assay: ELISA, hybridoma culture supernatant
T1 construct: also called anti-FX side Fab of ACE910; anti-FX-F(ab')2
Description: (§1) Mice and rats were immunized with anti-FIXa-F(ab′)2 or anti-FX-F(ab′)2. Cells obtained from the spleen removed from the mice or rats or from rat lymph nodes were subjected to cell fusion with mouse myeloma cells by following general methods to produce the hybridomas. The culture supernatants of the hybridomas were evaluated by ELISA which detects the binding of ACE910 to the anti-FIXa-arm or the anti-FX-arm, and ultimately, mouse antibodies, AQ8 and AQ1, and rat antibody, AQ512, which bind only to the anti-FIXa-arm but not to the anti-FX-arm of ACE910, and rat antibodies, AJ540, AJ114, AJ521, AJ522, and AJ541, which bind only to the anti-FX-arm but not to the anti-FIXa-arm of ACE910 were selected. In addition, the nucleotide sequences of the variable regions of the AQ8 antibody or the AJ540 antibody were analyzed. The nucleotide sequences of the variable regions of AQ8 and AJ540, and amino acid sequences predicted therefrom were analyzed using GENETYX Ver.9 (GENETYX CORPORATION).

[2] = biological target: T2, anti-FIXa-arm of ACE910; assay: ELISA, hybridoma culture supernatant
T2 construct: Q499/J327; also called anti-FIXa side Fab of ACE910; anti-FIXa-F(ab')2
Description: as §1

T1 sequence (VH, as listed by the source, chain 1 of 2): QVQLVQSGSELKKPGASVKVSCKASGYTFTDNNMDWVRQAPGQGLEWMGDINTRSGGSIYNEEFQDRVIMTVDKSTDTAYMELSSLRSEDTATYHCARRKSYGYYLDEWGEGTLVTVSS
T1 sequence (VL, as listed by the source, chain 2 of 2): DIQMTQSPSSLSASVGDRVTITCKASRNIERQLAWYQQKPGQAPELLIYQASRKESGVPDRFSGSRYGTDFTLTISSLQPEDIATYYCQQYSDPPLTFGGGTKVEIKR
T2 sequence (VH, as listed by the source, chain 1 of 2): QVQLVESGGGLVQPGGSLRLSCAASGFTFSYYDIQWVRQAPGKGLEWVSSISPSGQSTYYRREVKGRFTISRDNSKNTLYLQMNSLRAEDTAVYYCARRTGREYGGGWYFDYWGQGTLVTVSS
T2 sequence (VL, as listed by the source, chain 2 of 2): as the sequence (VL, as listed by the source, chain 2 of 2) above

Binder | binding result [1] | binding result [2]
B1 | no binding | 
B2 |  | no binding
